Literature values as cited in paper PMC11281341.

Target: HIV-1 capsid protein (CA) CA (Human immunodeficiency virus 1) (UniProt O93182)
Sequence (O93182 133-363): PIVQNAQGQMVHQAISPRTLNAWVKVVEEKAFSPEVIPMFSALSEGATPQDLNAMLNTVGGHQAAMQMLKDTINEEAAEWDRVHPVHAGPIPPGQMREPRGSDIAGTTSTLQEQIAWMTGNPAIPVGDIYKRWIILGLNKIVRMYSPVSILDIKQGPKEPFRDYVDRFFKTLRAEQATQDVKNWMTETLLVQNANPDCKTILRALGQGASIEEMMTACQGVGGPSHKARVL

Sequence of TRIM5alpha SPRY (Q0PF16 283-497): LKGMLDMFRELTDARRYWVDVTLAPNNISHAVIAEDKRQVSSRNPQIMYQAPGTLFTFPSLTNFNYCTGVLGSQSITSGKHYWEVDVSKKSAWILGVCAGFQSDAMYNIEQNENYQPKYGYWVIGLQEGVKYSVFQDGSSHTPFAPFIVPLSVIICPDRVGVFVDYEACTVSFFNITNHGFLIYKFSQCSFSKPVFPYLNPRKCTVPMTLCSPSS

Substance: TRIM5alpha SPRY (from UniProt Q0PF16)
- Kd: > 1 mM
